In the oligonucleotide strings, read from the 5' end, every base follows the letter of its sugar. An asterisk marks phosphorothioate; unmarked linkages are phosphodiester. Other units and linkages are bracketed, terminal groups are in braces. A string of capitals states the bases alone. m = 2'-O-methyl; r = 2'-OH (RNA)
B1: GA460: guide RNA, spacer 5′-UAUAGGAAAACCAGUGAGUC-3′ (SEQ ID NO: 475) (nucleic acid)
guide: TATAGGAAAACCAGTGAGTCGTTTTAGAGCTAGAAATAGCAAGTTAAAATAAGGCTAGTCCGTTATCAACTTGAAAAAGTGGCACCGAGTCGGTGCTTTT
modifications: chemistry not given here
B2: GA459: guide RNA, spacer 5′-GCAACUUACCCAGAGGCAAA-3′ (SEQ ID NO: 474) (nucleic acid)
guide: GCAACTTACCCAGAGGCAAAGTTTTAGAGCTAGAAATAGCAAGTTAAAATAAGGCTAGTCCGTTATCAACTTGAAAAAGTGGCACCGAGTCGGTGCTTTT
modifications: chemistry not given here
B3: sgRNA_362: guide RNA, SEQ ID NO: 480 (nucleic acid)
guide: mU*mA*mC*rUrCrArCrCrUrCrUrGrCrArUrGrCrUrCrArGrUrUrUrUrArGrArGrCrUrArGrArArArUrArGrCrArArGrUrUrArArArArUrArArGrGrCrUrArGrUrCrCrGrUrUrArUrCrArArCrUrUrGrArArArArArGrUrGrGrCrArCrCrGrArGrUrCrGrGrUrGrCmU*mU*mU*rU
B4: GA461: guide RNA, spacer 5′-UACUCACCUCUGCAUGCUCA-3′ (SEQ ID NO: 476) (nucleic acid)
guide: TACTCACCTCTGCATGCTCAGTTTTAGAGCTAGAAATAGCAAGTTAAAATAAGGCTAGTCCGTTATCAACTTGAAAAAGTGGCACCGAGTCGGTGCTTTT
modifications: chemistry not given here
B5: sgRNA_361: guide RNA, SEQ ID NO: 479 (nucleic acid)
guide: mU*mA*mU*rArGrGrArArArArCrCrArGrUrGrArGrUrCrGrUrUrUrUrArGrArGrCrUrArGrArArArUrArGrCrArArGrUrUrArArArArUrArArGrGrCrUrArGrUrCrCrGrUrUrArUrCrArArCrUrUrGrArArArArArGrUrGrGrCrArCrCrGrArGrUrCrGrGrUrGrCmU*mU*mU*rU

Tests used:
human TTR gene = assay: Base editing in primary human hepatocytes (gRNA + ABE8.8 mRNA transfection, NGS of amplicons); assay type: cell-based; settings: for Human hepatocytes- Editing % 625, rep 1 / Human hepatocytes- Editing % 625, rep 2: 625 ng/RNA/mL; for Human hepatocytes- Editing % 625, rep 1 / Human hepatocytes- Editing % 625, rep 2 / Human hepatocytes- Editing % 1250, rep 1 / Human hepatocytes- Editing % 1250, rep 2 / Human hepatocytes- Editing % 2500, rep 1 / Human hepatocytes- Editing % 2500, rep 2: gRNA + ABE8.8 mRNA 1:1; for Human hepatocytes- Editing % 1250, rep 1 / Human hepatocytes- Editing % 1250, rep 2: 1250 ng/RNA/mL; for Human hepatocytes- Editing % 2500, rep 1 / Human hepatocytes- Editing % 2500, rep 2: 2500 ng/RNA/mL; for editing activity (percent splice editing) in human hepatocytes: primary human hepatocytes, ABE8.8 mRNA 1:1, three days after transfection
Source text: In this example, gRNA sequences were identified that permit ABE8.8 (and other ABE variants containing Streptococcus pyogenes Cas9, such as ABE7.10, or another Cas protein that can use the NGG PAM) to either: 1) disrupt the start codon, and/or 2) disrupt splice sites, whether donors or acceptors, via A→G editing within its editing window (roughly positions 4 to 7 in the 20-nt protospacer region of DNA). Five sequences were identified throughout the human TTR gene that disrupt TTR expression (Table 8). gRNAs were synthesized matching each of the protospacer sequences and otherwise conforming to the standard 100-nt Streptococcus pyogenes CRISPR gRNA sequence, with each gRNA molecule having a minimal degree of chemical modifications (specified in Table 8). Each of the gRNAs was co-transfected with an equivalent amount of in vitro transcribed ABE8.8 mRNA (1:1 ratio by molecular weight) into primary human hepatocytes via MessengerMax reagent (Lipofectamine), using various dilutions (2500,1250, 625 ng/RNA/mL) to assess for editing activity at different concentrations of test article.
(§1) For orthogonal protospacer sequences of the corresponding cynomolgus monkey TTR gene sequence, each gRNA was also transfected with an equivalent amount of ABE8.8 mRNA (1:1 ratio by molecular weight) into primary cynomolgus hepatocytes at 5000, 2500, 1250, 625, 312.5, and 156.25 ng/RNA/mL. The mRNA, and corresponding amino acid, sequence of the ABE8.8 (MA004) used in shown below in Table 18. Three days after transfection, genomic DNA was harvested from the hepatocytes, and assessed for base editing with next-generation sequencing of PCR amplicons generated around the target splice site. […] See FIGS. 5A-5C, FIG. 6, and Tables 9-10.

[1] = system: on-target site and candidate off-target sites; assay: Validation of candidate off-target sites in primary human hepatocytes; assay type: cell-based; settings: for editing efficiency at the on-target site: gRNA + ABE8.8 mRNA
Protocol: Several candidate off-target sites were analyzed for off-target editing in human primary hepatocytes.

[2] = biological target: purified cyno TTR protein (Abcam, ab239566) (cyno (Macaca fascicularis)) (UniProt Q8HXW1); assay: sandwich ELISA; known concentrations of purified cyno TTR run on the human TTR kit, read against the human TTR standards
[3] = system: cynomolgus monkey TTR gene; assay: Base editing in primary cynomolgus hepatocytes (gRNA + ABE8.8 mRNA transfection, NGS); assay type: cell-based; settings: for Cyno hepatocytes- Editing % 156.25: 156.25 ng/RNA/mL; for Cyno hepatocytes- Editing % 156.25 / Cyno hepatocytes- Editing % 312.5 / Cyno hepatocytes- Editing % 625 / Cyno hepatocytes- Editing % 1250 / Cyno hepatocytes- Editing % 2500 / Cyno hepatocytes- Editing % 5000: gRNA + ABE8.8 mRNA 1:1; for Cyno hepatocytes- Editing % 312.5: 312.5 ng/RNA/mL; for Cyno hepatocytes- Editing % 625: 625 ng/RNA/mL; for Cyno hepatocytes- Editing % 1250: 1250 ng/RNA/mL; for Cyno hepatocytes- Editing % 2500: 2500 ng/RNA/mL; for Cyno hepatocytes- Editing % 5000: 5000 ng/RNA/mL; for editing activity in cynomolgus primary hepatocytes: ABE8.8 mRNA 1:1, three days after transfection
Protocol: as §1

transthyretin (TTR) gene = assay: Guide RNA screen in HEK293T cells: splice site disruption by base editors and bhCas12b nuclease (Example 5); assay type: cell-based, human; settings: editor mRNA + sgRNA
Protocol: The guide RNAs listed in Table 1 were screened for use in editing the transthyretin (TTR) gene by disrupting splice sites (FIG. 29A-29C) or using a bhCas12b nuclease strategy (FIG. 30). 15 total guide RNAs were screened. The screen was performed in HEK293T cells using based editors and bhCas12b delivered as mRNA and the sgRNAs. The guide RNAs sgRNA_361 and sgRNA_362 worked well in splice site disruption (FIGS. 29A-29C) using ABE and/or BE4. Several of the gRNAs functioned well as bhCas 12b nuclease gRNAs.
Cells were cultured at 37° C. with 5% CO2. HEK293T cells [CLBTx013, American Type Cell Culture Collection (ATCC)] were cultured in Dulbecco's modified Eagles medium plus Glutamax (10566-016, Thermo Fisher Scientific) with 10% (v/v) fetal bovine serum (A31606-02, Thermo Fisher Scientific). Cells were tested negative for mycoplasma after receipt from supplier.
HEK293T cells were seeded onto 48-well well Poly-D-Lysine treated BioCoat plates (Corning) at a density of 35,000 cells/well and transfected 18-24 hours after plating. Cells were counted using a NucleoCounter NC-200 (Chemometec). A solution was prepared containing Opti-MEM reduced serum media (ThermoFisher Scientific), the base editor, nuclease, or control mRNA, and sgRNA. The solution was combined with Lipofectamine MessengerMAX (ThermoFisher) in Opti-MEM reduced serum media and left to rest at room temperature for 15 min. […]

[4] = GA459 On-target site (SEQ ID NO: 468)
[5] = GA459 off-target site OT1 (SEQ ID NO: 1095)
[6] = GA459 off-target site OT3 (SEQ ID NO: 1096)

Molecule | Human hepatocytes- Editing % 625, rep 1 (human TTR gene) [%] | Human hepatocytes- Editing % 625, rep 2 (human TTR gene) [%] | Human hepatocytes- Editing % 1250, rep 1 (human TTR gene) [%] | Human hepatocytes- Editing % 1250, rep 2 (human TTR gene) [%] | Human hepatocytes- Editing % 2500, rep 1 (human TTR gene) [%] | Human hepatocytes- Editing % 2500, rep 2 (human TTR gene) [%] | editing activity (percent splice editing) in human hepatocytes (human TTR gene) | editing efficiency at the on-target site ([1]; primary human hepatocytes) | off-target editing observed at candidate off-target sites [1] | other results
GA457: guide RNA, spacer 5′-GCCAUCCUGCCAAGAAUGAG-3′ (SEQ ID NO: 472), human TTR | 17.24 | 15.39 | 26.49 | 24.86 | 33.96 | 31.31 | high editing activity | high editing efficiency | – | net editing at off-target sites ([1]; 47 candidate off-target sites, primary human hepatocytes): less than 0.4%
antibodies of the human prealbumin (TTR) ELISA kit (Abcam, ab231920) (antibody) | – | – | – | – | – | – | – | – | – | cross-reactivity [2]: 4%
B1 | 23.77 | 22.27 | 38.33 | 35.8 | 47.61 | 47.79 | high editing activity | high editing efficiency | little to no off-target editing | Cyno hepatocytes- Editing % 156.25 [3]: 1.62%; Cyno hepatocytes- Editing % 312.5 [3]: 11.22%; Cyno hepatocytes- Editing % 625 [3]: 18.44%; Cyno hepatocytes- Editing % 1250 [3]: 31.71%; Cyno hepatocytes- Editing % 2500 [3]: 38.25%; Cyno hepatocytes- Editing % 5000 [3]: 40.16%; editing activity in cynomolgus primary hepatocytes [3]: high editing activity
B2 | 3.79 | 3.89 | 5.46 | 6.15 | 8.5 | 8.69 | – | high editing efficiency | little to no off-target editing | SUM Editing %- Human Primary Hepatocytes Treat rep 1 [1, 4]: 14.17%; SUM Editing %- Human Primary Hepatocytes Treat rep 2 [1, 4]: 14.29%; SUM Editing %- Human Primary Hepatocytes Treat rep 1 [1, 5]: 1.19%; SUM Editing %- Human Primary Hepatocytes Treat rep 2 [1, 5]: 1.25%; SUM Editing %- Human Primary Hepatocytes Treat rep 1 [1, 6]: 0.98%; SUM Editing %- Human Primary Hepatocytes Treat rep 2 [1, 6]: 0.82%
B3 | – | – | – | – | – | – | – | – | – | splice site disruption using ABE and/or BE4 (transthyretin (TTR) gene): worked well
B4 | 21.81 | 22.31 | 32.82 | 32.38 | 40.42 | 39.43 | high editing activity | high editing efficiency | little to no off-target editing | Cyno hepatocytes- Editing % 156.25 [3]: 0.07%; Cyno hepatocytes- Editing % 312.5 [3]: 7.45%; Cyno hepatocytes- Editing % 625 [3]: 13.16%; Cyno hepatocytes- Editing % 1250 [3]: 19.46%; Cyno hepatocytes- Editing % 2500 [3]: 29.8%; Cyno hepatocytes- Editing % 5000 [3]: 37.53%; editing activity in cynomolgus primary hepatocytes [3]: high editing activity
B5 | – | – | – | – | – | – | – | – | – | splice site disruption using ABE and/or BE4 (transthyretin (TTR) gene): worked well

Source: patent US20250325702A1, “COMPOSITIONS AND METHODS FOR EDITING A TRANSTHYRETIN GENE” (Beam Therapeutics Inc., priority 2022, published 2025)
